Reference: patent US20240409619A1 (WISTAR INSTITUTE OF ANATOMY AND BIOLOGY, published 2024)

Target: SARS-COV-2 spike protein, isolate USA-WA1/2020, on pseudotyped virus (SARS-COV-2, UniProt P0DTC2 14-1273)
Assay: cell-based or functional assay

B1: DMAb 2381_FcWT (antibody, V domains shown)
VH: QMQLVQSGPEVKKPGTSVKVSCKASGFTFTSSAVQWVRQARGQRLEWIGWIAVGSGNTNYAQKFQERVSITRDMSTSTAYMELSSLRSEDTAVYYCAAPYCSRTSCHDAFDIWGQGTKVTVSS
VL: EVVLTQSPGTLSLSPGERATLSCRASQSVSSSYLAWYQQKPGQAPRLLIYGASSRATGIPDRFSGSGSGTDFTLTISRLEPEDFAVYHCQHFGSSSQWTFGQGTKVEIKR
With B1 the “neutralization potency (IC50) of serum against pseudotyped virus” value was < 5 ng/mL.
